Data from article PMC6080939 (The Journal of Cell Biology, 2018).
Like-named read-outs stand apart in the source and are kept apart here.

B1: VCAM-1 (adsorbed on the surface for AFM single-cell force spectroscopy) (ligand, human, UniProt P19320 25-698, looked up)
chain: FKIETTPESRYLAQIGDSVSLTCSTTGCESPFFSWRTQIDSPLNGKVTNEGTTSTLTMNPVSFGNEHSYLCTATCESRKLEKGIQVEIYSFPKDPEIHLSGPLEAGKPITVKCSVADVYPFDRLEIDLLKGDHLMKSQEFLEDADRKSLETKSLEVTFTPVIEDIGKVLVCRAKLHIDEMDSVPTVRQAVKELQVYISPKNTVISVNPSTKLQEGGSVTMTCSSEGLPAPEIFWSKKLDNGNLQHLSGNATLTLIAMRMEDSGIYVCEGVNLIGKNRKEVELIVQEKPFTVEISPGPRIAAQIGDSVMLTCSVMGCESPSFSWRTQIDSPLSGKVRSEGTNSTLTLSPVSFENEHSYLCTVTCGHKKLEKGIQVELYSFPRDPEIEMSGGLVNGSSVTVSCKVPSVYPLDRLEIELLKGETILENIEFLEDTDMKSLENKSLEMTFIPTIEDTGKALVCQAKLHIDDMEFEPKQRQSTQTLYVNVAPRDTTVLVSPSSILEEGSSVNMTCLSQGFPAPKILWSRQLPNGELQPLSENATLTLISTKMEDSGVYLCEGINQAGRSRKEVELIIQVTPKDIKLTAFPSESVKEGDTVIISCTCGNVPETWIILKKKAETGDTVLKSIDGAYTIRKAQLKDAGVYECESKNKVGSQLRSLTLDVQGRENNKDYFSPE

Experiments:
Assay in all cases: AFM single-cell force spectroscopy
[1] = biological target: integrin α4β7 (human (endogenous in RPMI 8866–CXCR3)) (UniProt P13612)
Chain of integrin α4β7 (human (endogenous in RPMI 8866–CXCR3)) (P13612 34-1032, chain 1 of 2): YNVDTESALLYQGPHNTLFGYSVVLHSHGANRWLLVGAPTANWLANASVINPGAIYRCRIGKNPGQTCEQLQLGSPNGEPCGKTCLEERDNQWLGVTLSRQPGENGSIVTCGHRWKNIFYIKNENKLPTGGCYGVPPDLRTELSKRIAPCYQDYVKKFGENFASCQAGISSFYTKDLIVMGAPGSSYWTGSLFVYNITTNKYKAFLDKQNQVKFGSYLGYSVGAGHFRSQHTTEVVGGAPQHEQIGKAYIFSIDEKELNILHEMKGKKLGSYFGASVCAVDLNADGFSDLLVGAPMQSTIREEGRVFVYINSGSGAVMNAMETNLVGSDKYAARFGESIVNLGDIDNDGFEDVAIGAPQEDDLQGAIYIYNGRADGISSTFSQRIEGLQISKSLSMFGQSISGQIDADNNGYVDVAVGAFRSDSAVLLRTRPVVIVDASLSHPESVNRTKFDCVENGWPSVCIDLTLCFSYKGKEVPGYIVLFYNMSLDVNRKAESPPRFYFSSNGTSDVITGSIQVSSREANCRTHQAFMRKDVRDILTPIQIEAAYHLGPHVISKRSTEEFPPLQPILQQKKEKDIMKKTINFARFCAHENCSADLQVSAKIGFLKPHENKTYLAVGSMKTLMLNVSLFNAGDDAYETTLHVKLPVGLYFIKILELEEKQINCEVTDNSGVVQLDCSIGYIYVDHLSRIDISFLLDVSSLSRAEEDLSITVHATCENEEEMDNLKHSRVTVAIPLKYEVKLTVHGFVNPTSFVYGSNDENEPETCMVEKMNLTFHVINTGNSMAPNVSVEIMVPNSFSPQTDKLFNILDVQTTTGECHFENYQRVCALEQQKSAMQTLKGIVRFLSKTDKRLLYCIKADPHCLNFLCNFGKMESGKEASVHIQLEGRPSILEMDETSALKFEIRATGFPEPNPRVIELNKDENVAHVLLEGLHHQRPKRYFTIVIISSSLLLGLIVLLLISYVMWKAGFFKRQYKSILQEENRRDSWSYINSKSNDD
Chain of integrin α4β7 (human (endogenous in RPMI 8866–CXCR3)) (P26010 20-798, chain 2 of 2, further chain): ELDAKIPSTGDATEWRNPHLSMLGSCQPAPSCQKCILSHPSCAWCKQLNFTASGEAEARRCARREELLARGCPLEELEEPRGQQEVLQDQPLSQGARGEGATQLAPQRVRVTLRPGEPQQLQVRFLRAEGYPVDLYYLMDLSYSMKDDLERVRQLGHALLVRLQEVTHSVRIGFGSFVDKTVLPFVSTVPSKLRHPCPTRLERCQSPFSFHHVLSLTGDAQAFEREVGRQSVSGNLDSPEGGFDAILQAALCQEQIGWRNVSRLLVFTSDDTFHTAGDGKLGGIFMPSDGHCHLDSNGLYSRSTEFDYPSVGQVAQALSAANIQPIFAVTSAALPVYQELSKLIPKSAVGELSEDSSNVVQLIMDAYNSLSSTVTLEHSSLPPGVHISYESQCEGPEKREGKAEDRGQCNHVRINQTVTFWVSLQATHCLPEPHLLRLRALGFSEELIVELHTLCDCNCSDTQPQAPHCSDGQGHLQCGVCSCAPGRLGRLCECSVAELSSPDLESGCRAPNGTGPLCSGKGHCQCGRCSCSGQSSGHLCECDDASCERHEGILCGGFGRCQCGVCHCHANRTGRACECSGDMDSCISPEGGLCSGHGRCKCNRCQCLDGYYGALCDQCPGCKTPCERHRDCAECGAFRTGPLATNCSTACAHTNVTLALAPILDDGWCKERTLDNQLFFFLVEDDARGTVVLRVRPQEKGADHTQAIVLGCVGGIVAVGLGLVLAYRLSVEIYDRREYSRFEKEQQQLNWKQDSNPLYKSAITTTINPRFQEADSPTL

[2] = biological target: integrin α4β7 (human (endogenous in RPMI 8866–CXCR3)) (UniProt P13612); remark: listed apart in the source
[3] = biological target: integrin α4β7 (human (endogenous in RPMI 8866–CXCR3)) (UniProt P13612); remark: listed apart in the source
[4] = biological target: integrin α4β7 (human (endogenous in RPMI 8866–CXCR3)) (UniProt P13612); remark: listed apart in the source
[5] = biological target: integrin α4β7 (human (endogenous in RPMI 8866–CXCR3)) (UniProt P13612); remark: listed apart in the source
[6] = biological target: integrin α4β7 (human (endogenous in RPMI 8866–CXCR3)) (UniProt P13612); remark: listed apart in the source
[7] = biological target: T1, integrin α4β7 (human (endogenous in RPMI 8866–CXCR3), UniProt P13612 34-1032; P26010 20-798)
T1 sequence (P13612 34-1032, chain 1 of 2): as the sequence (P13612 34-1032, chain 1 of 2) above
T1 sequence (P26010 20-798, chain 2 of 2): as the sequence (P26010 20-798, chain 2 of 2, further chain) above

[8] = biological target: T1, integrin α4β7; remark: listed apart in the source
[9] = biological target: T1, integrin α4β7; remark: listed apart in the source

Molecule | koff [1] [s⁻¹] | koff [2] [s⁻¹] | adhesion frequency [3] [%] | adhesion frequency [4] [%] | koff [4] [s⁻¹] | single-bond unbinding force [4] [pN] | adhesion frequency [5] [%] | single-bond unbinding force [6] [pN] | koff [7] [s⁻¹] | koff [8] [s⁻¹] | koff [9] [s⁻¹]
MAdCAM-1 (adsorbed on the surface for AFM single-cell force spectroscopy) (from UniProt Q13477 19-382) (ligand) | 1.17 | 0.4 | 25 | 31 | 1.03 | 35 to 80 | 55 | 32 | – | – | –
B1 | – | – | – | – | – | – | – | – | 0.83 | 1.58 | 1.75
